From article PMC8876890, “Engineering Chimeras by Fusing Plant Receptor-like Kinase EMS1 and BRI1 Reveals the Two Receptors’ Structural Specificity and Molecular Mechanisms” (International Journal of Molecular Sciences, 2022)
Blank lines part the entries; values can stand above or below the binder they belong to.

Columns and labels:
[1] = target: T1, BSK1-His (UniProt Q944A7 1-512); test: pull-down; GST fusion proteins on Glutathione Sepharose 4B beads, incubated with BSK1-His or BSK3-His 4-6 h at 4 °C, washed 6-8 times with His lysis buffer; blot with His and GST antibodies; settings: both partners purified
T1 construct: BSK1, receptor-like cytoplasmic kinase of subfamily RLCK-XII, full-length cDNA in pET-28a; The species is most likely Arabidopsis thaliana, the plant of the whole study; source: E. coli BL21 (DE3), purified (Ni-NTA Agarose)

[2] = target: T2, BSK3-His (UniProt Q8W4L3 1-489); test: as above; settings: both partners purified
T2 construct: BSK3, receptor-like cytoplasmic kinase of subfamily RLCK-XII, full-length cDNA in pET-28a; The species is most likely Arabidopsis thaliana, the plant of the whole study; source: E. coli BL21 (DE3), purified (Ni-NTA Agarose)
T2 sequence (Q8W4L3 whole entry): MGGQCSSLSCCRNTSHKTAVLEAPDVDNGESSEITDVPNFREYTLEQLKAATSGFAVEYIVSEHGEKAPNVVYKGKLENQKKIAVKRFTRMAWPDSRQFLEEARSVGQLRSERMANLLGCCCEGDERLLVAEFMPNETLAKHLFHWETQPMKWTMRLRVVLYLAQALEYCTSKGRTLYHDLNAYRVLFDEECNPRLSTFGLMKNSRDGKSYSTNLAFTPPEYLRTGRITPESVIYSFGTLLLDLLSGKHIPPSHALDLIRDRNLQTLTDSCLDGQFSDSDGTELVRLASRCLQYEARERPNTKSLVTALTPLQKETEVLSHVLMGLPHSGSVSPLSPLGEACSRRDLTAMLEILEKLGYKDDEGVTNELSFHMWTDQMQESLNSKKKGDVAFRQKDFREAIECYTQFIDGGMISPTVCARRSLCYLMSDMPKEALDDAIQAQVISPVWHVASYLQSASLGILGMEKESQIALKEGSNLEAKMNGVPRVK

T1 sequence (Q944A7 whole entry, the tested form may be a part): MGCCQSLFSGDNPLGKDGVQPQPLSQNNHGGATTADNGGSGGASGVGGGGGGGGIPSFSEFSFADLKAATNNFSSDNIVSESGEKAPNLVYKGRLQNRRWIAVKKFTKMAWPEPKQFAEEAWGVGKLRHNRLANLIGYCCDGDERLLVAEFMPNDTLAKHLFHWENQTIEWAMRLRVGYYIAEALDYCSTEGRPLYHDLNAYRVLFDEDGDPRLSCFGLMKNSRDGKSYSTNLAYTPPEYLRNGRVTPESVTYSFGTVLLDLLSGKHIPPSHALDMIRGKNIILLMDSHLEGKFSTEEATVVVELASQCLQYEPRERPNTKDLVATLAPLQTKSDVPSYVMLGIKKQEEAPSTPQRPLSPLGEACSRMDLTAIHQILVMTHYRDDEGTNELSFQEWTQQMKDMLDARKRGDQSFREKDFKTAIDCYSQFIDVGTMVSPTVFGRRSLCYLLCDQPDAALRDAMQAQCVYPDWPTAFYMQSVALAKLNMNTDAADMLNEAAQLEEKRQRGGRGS

binding result [1]: binds
binding result [2]: binds
B1: GST-EMS1-CD (domain or fragment, Arabidopsis thaliana, UniProt Q9LYN8 849-1192, looked up)
chain: RRWAMTKRVKQRDDPERMEESRLKGFVDQNLYFLSGSRSREPLSINIAMFEQPLLKVRLGDIVEATDHFSKKNIIGDGGFGTVYKACLPGEKTVAVKKLSEAKTQGNREFMAEMETLGKVKHPNLVSLLGYCSFSEEKLLVYEYMVNGSLDHWLRNQTGMLEVLDWSKRLKIAVGAARGLAFLHHGFIPHIIHRDIKASNILLDGDFEPKVADFGLARLISACESHVSTVIAGTFGYIPPEYGQSARATTKGDVYSFGVILLELVTGKEPTGPDFKESEGGNLVGWAIQKINQGKAVDVIDPLLVSVALKNSQLRLLQIAMLCLAETPAKRPNMLDVLKALKEI
notes: EXCESS MICROSPOROCYTES1 (EMS1) LRR receptor-like kinase, Arabidopsis thaliana, cytoplasmic domain, residues 849-1192, cloned into pGEX-4T-3; also called cytoplasmic domain of EMS1; EMS1 kinase domain; source: E. coli BL21 (DE3), purified (Glutathione Sepharose 4B)

binding result [1]: binds
binding result [2]: binds
B2: GST-BRI1-CD (domain or fragment, Arabidopsis thaliana, UniProt O22476 814-1196, looked up)
chain: GREMRKRRRKKEAELEMYAEGHGNSGDRTANNTNWKLTGVKEALSINLAAFEKPLRKLTFADLLQATNGFHNDSLIGSGGFGDVYKAILKDGSAVAIKKLIHVSGQGDREFMAEMETIGKIKHRNLVPLLGYCKVGDERLLVYEFMKYGSLEDVLHDPKKAGVKLNWSTRRKIAIGSARGLAFLHHNCSPHIIHRDMKSSNVLLDENLEARVSDFGMARLMSAMDTHLSVSTLAGTPGYVPPEYYQSFRCSTKGDVYSYGVVLLELLTGKRPTDSPDFGDNNLVGWVKQHAKLRISDVFDPELMKEDPALEIELLQHLKVAVACLDDRAWRRPTMVQVMAMFKEIQAGSGIDSQSTIRSIEDGGFSTIEMVDMSIKEVPEGKL
notes: BRASSINOSTEROID … 1 (BRI1) LRR receptor-like kinase, Arabidopsis thaliana, cytoplasmic domain, residues 814-1196, cloned into pGEX-4T-3; also called cytoplasmic domain of BRI1; source: E. coli BL21 (DE3), purified (Glutathione Sepharose 4B)
